Assay results taken from the DeepSol protein solubility set.

test: soluble on expression in E. coli; label from the status in PepcDB or PDB records

Row | Sequence | soluble on expression in E. coli
1 | MSTTGRIHSFESCGTVDGPGIRFIVFLQGCLMRCKYCHNRDTWDTHDGKEVTVEEIIAEAKSYRHFMNASGGGITCSGGEAMLQPEFVRDFFRAAHAEGIHTCLDTNGYIRKHTEVIDEVLDATDLVMLDIKHMKDEIHQDFIGVSNRRTLDFARYLHKIGQKTWIRYVVVPGYTDDPEAAHMLGEFIKDMDNIEKVELLPYHKLGAHKWEALGLEYPLEGVNPPSKETMDEIQSILSQYHSNVKYLEHHHHHH | not soluble
2 | MSVELRDATVDDLSGIMEIYNDAVVNTTAIWNEVVVDLENRKDWFAARTSRGFPVIVAILDGKVAGYASYGDWRAFDGYRHTREHSVYVHKDARGHGIGKRLMQALIDHAGGNDVHVLIAAIEAENTASIRLHESLGFRVVGRFSEVGTKFGRWLDLTCMELKLG | not soluble
3 | MSVKIDVIRVEIPEGTNVIIGQSHFIKTVEDLYETLASSSPHLKFGIAFCEASGKRLIRWDGNDEELIKLAQQTALKIGAGHTFVIYIKNGFPINVLNRIKNVEEVVRIFAATANPLQVLVAETDQGRGVIGVVDGYTPLGIETEADIKERKELLRKFGYKR | soluble
4 | MSVLEKIDSPADLKKVSNQELEELASEIRTAVLHKVSNIGGHVGPNLGVTELTIALHKVFNSPIDKFIWDVSHQTYPHKILTGRKNGFTDGHFHDITPYTSQRESEHDFFTVGHTSTSIANALGYAKARDLTNDKGNIVAVIGDGSLSGGLAMEALNNAGDFKGNLIILVNDNQMSIAENHGGLYRNLAELRATNGQAENNFFKTFGLDYKYLENGNDIESLIHLFEEVKDIDHPIVLHIHTEKGRGYQPALENKEAFHWHMPFDLETGQSKVIDSGKSYSSVMLDYMDKKVSEGLPLVAINAAIPGIFGLKQFAAKYPDRYIDAGIAEQFTITFGGAMAAAGARPIIFHNSTFVQRAYDQFWHDLAINEEPAIVIVKGGVISGSDETHQGSSAMTWISNIPNIKYLAPTSEEEFISILDWALEQHEEPVVIQMPEHGLESRPTVLTDYSTPSYQMTKSGEKVALLALGGLYSHGEKVAKVLAENGINATLINPLFINDLDQAFLENLVENHQVIATIEDGILDGGFGQKVASFLGKYDVKVLNFGAKREFNDSVPVTELYNRYHLTPELMVADILSLLKLEHHHHHH | not soluble
5 | MSVLIPLVTVDGRDSVLLTKRSIHLRSHRGEVCFPGGRMDPGETTTETALRETFEEIGVNAESVEIWGHLKSVIRRQADFNVTPIVGYISDERVLENLVVNSDEVQAVFTIPIDELIKKAGLTKFQSKRMKYTLPSFDSTEFKVHHNAPNEYLHSTQRVWGLSGVMLHQALTLLNPDVYKHDLIVKFF | not soluble
6 | MSVLNPCMTCGACCAYFRVSFYWAEGDDASGRVPASLTEPVTPFLRCMAGTNQKQPHCKALIGTPGENVSCAIYENRPSTCREFSISGEGGEVNEACNRARARYGLPPLYKDMLFHTTADAATVELSRVQLPANLEHHHHHH | not soluble
7 | MSVMTLKKQTYRVIAVINQGQELLVRAHEPETADIEIIPVTTVVQVTEQNSTGDAAVALDTVTVVGERYVDDIVATLTTLRVGMAVLLQRESGNQYDDNAISVWTLQHAKLGYIARYQNQPYATLMDQGQRLYGIVTVLDQQKQHLELMLWRTTAVPSPIEALQIRQRLAKPRTNLGAVPTHSLQTPLGTIVMMCNGHPIKYQQVPLSPWLTPADELHVTKRYLLTPDWSQVPPDSLITCQVTAKADVVQRWQNEHISAAVLTNASSFYVVGISAQTKTGLNDNLVDDAAQPAVIYRVGQVSAHMQAGFMVSWAPFGDPRVQPALKLALHFSSQPLVPYHPVTPSRTNATFTQQELAALLVSALPNYQGGQRLEPSVTTITVEKLRQTLGDQTYHALANYQRHVQLVAGSTEGVNETLLQALIHAVTYHELTTMHYYQPTVGMVDQVIYPIQLFSTTTKDEDDAQLVGCLALYNYETFEIQQVPLTAIARIAIIADPEHPQTTPETESPDWLRIFLHGWNDDFLEHHHHHH | soluble
8 | MSVTVKRIIDNTVIVPKLPANEDPVEYPADYFRKSKEIPLYINTTKSLSDLRGYVYQGLKSGNVSIIHVNSYLYGALKDIRGKLDKDWSSFGINIGKAGDTIGIFDLVSLKALDGVLPDGVSDASRTSADDKWLPLYLLGLYRVGRTQMPEYRKKLMDGLTNQCKMINEQFEPLVPEGRDIFDVWGNDSNYTKIVAAVDMFFHMFKKHECASFRYGTIVSRFKDCAALATFGHLCKITGMSTEDVTTWILNREVADEMVQMMLPGQEIDKADSYMPYLIDFGLSSKSPYSSVKNPAFHFWGQLTALLLRSTRARNARQPDDIEYTSLTTAGLLYAYAVGSSADLAQQFCVGDNKYTPDDSTGGLTTNAPPQGRDVVEWLGWFEDQNRKPTPDMMQYAKRAVMSLQGLREKTIGKYAKSEFDK | soluble
9 | MSVVKSIELVLPEDRIYLAGSSIKGQVILTLNSTLVDPIVKVELVGRGYVEWSEEAGASCDYSRNVICNNKADYVHKTKTFPVEDNWLSAGSHTFDFHFNLPPRLPSTFTSKFGHVFYFVQASCMGREHILAKKRMYLLVQGTSTFHKETPFQNPLFVEAEEKVSYNCCRQGTVCLQIQMERNTFTPGEKVVFTTEINNQTSKCIKTVVFALYAHIQYEGFTPSAERRSRLDSSELLRQEANTPVTRFNTTKVVSTFNLPLLLSVSSSTQDGEIMHTRYELVTTVHLPWSLTSLKAKVPIIITSASVDSAICQLSEDGVLPVNPDHQN | soluble
10 | MSVWLLQMKTNAIITDITKSIVKMDRILVYRHTNPDPDAIGAQFGLVALLKAAYPEKLVVAMAPVPGHLAWIDTTDEQLVTPQATDLVIAVDCANHERLAGELPTGAFVIKIDHHPNHDPYGQLNWVDETYSSCSEMIYELAQAGCFTVTAAVATKLYAGIIGDTVRFSTPETSTRTLKIASALAATDIDIATISHHEMDLTPALSKLYGYVLSEQTIEPSGLAHVVLPQRIFSDLSLEYGDEDALVPLPGNLTTVKVWLFFIETPQGQYRVHFRSKAINVNAVAKAFNGGGHPLASGAFVPDLATVGQVIEQMQAQVLAATAVDLEHHHHHH | not soluble
11 | MSWKHIKIPNGDTMIFCNSFITRKSSMNIVVTHTPIVTTLEMQKAYEPLAKHNVNIFAFDFSGTGKSDGYEKDFSRNSIVKDLDSVITYIEKNYSSNIHLYGNTGIGGMFAQYYACSDNKLKSFAQFACVDYKNTTGVGYTYLTVKLLNFFFKFLPNFHITVKPPKYKGYNEVYDNEFYKIFEKKNPHIWKNSTKIINTMLECFIAKDSKIKDGVNIPTLVFKTLHDRYFKTQYFDSYYNSLKCKKKLVEINNVHNSYYIDSEKFCQEAYDWFVENQ | not soluble
12 | MTAEHSWRLCLMALAFEDQLAGLDLGKVLRMCVVHDLGEAIHGDIPAVEQAAHPDKGEQERADLLQLTRHLDAPLRDRLLALWDEYERGESAEALAVKALDKLETL | soluble
13 | MTAENLSLSPELLDAVRRISGTEHLLVALDFDGTLSPIVDRAEDARPLPRSAAALEALAQLPRTTTALISGRALDSLRLVASPPADTLLIGSHGAEVWLGEGSLGLELDEDQRLKLAAVREVLSEIVNIAPGTLLEDKPAGVVLHTRMADDDVADDAVEAAMRVLREHPGVYLKTGKRVLETSVVHASKGQAVEFLRQATGATAILFAGDDVTDEDALGRLMGDDVGIKVGLDFTQAQYRVEAPVHVAELLEALLRERRRVTTDA | soluble
14 | MTAPISLRLVVEARDLPPMLPDVLRERFDRGETGVAWAPEHDASVGAPLGVLGGPEATAWPFAISEPPPVNVPALCAVGPCWWYPSFGAVIGNDGALYNATVGEARHGSADLSAIPGVASGGTRLVPPQDAPVLDGGAVFMPWGAGFNYGHFVIDALPSILALEQAGLLHDTPLLAPRLTDWQRELIAMATPGVRLQEVDAPAVRLGRAVFATSMDHFLHHPNGLLATLAERVTANAPKGAGARRVYLSRRGQSMRVMVGEAAFERALQARGFVIVRPETLGARAQVALMRDAEIIVGASGAALANAVFLPRGARVIEIQPTNFTSQWVRAACRQVGVEWRGYVCASPCPAHAAPLLARLRRGFKFAFRPDLDDLLSFVDAALLEHHHHHH | not soluble
15 | MTARIYKPAKNAMQSGTAKTREWQLDYEPETPRTIEPLMGWTSSSDMQQQVSLRFHTRDEAVAYCEREGIPYQLIEPKEPVRRRAAYADNFAFRRPEPWTH | soluble
16 | MTASDSAADETGDLRHEAHAWVISLTSGRVTQGDARAFRQWCARSPQHLRAFVEARDLWQALGSAAALPLEPPAVAQIAPRRFGRRWFVGGALAASVALFVLRPSLLDHGLGGADYVTAVGEQRQVQVSGETRIEMNTRTRLNVRRNQEQQETIELLGGEAEIIASHPPQSSLRVMAGSAWLSASRARFNVRSSGDVCVVTCLEGSVRLEHLGQRLDLQAGQQLTFDERRNGPPVPFDVAEVMAWRERMLVFNDVPLATVIDEINRYRPGMLLLLDKALGRRRVQARFSLDQLADVATLIRDAYGIEVTRLPGGVVLLG | not soluble
17 | MTAVKHTTESTFAKLGVRDEIVRALGEEGIKRPFAIQELTLPLALDGEDVIGQARTGMGKTFAFGVPLLQRITSGDGTRPLTGAPRALVVVPTRELCLQVTDDLATAGKYLTAGPDTDDAAAVRRRLSVVSIYGGRPYEPQIEALRAGADVVVGTPGRLLDLCQQGHLQLGGLSVLVLDEADEMLDLGFLPDIERILRQIPADRQSMLFSATMPDPIITLARTFMVRPTHIRAEAPHSSAVHDATEQFVYRAHALDKVELVSRVLQARDRGATMIFTRTKRTAQKVADELTERGFAVGAVHGDLGQLAREKALKAFRTGGIDVLVATDVAARGIDIDDVTHVINYQCPEDEKMYVHRIGRTGRAGRTGVAVTLVDWDELPRWSMIDQALGLGSPDPAETYSNSPHLYAELAIPATAGGTVGPARKSQGRRRDTDCDGQKTAQHARNTPRRRRTRGGKPVTGHPGTNPISSPIVGGDATSEPGSGTASDSGSDVVSGSRSGNGEAARRRRRRRRRPTHAQDGFAARAN | soluble
18 | MTAVPLPILHLPHNALQMSLKQMSTVEHLALSFVSNKTRRLIKMLKEKNHITCISMGSPISIDFLSLTFDYKSNQKIVKIDNPEQNGSLSRLNLPGFTEKQWIEHFANVFIQNKKVMLISDLGERKIEDIYESIKDLNIVTLDIMTSEFQDCKLFKLFPTLEELGVSETPLSAPIFVQNFQSLTAIDVTLDDILSSNCTNLCLDDQLISDKDLNIFMRNWIKGSNPRLRKLTNTSVRHERDISDSVFFRGISQIKTRDWCDEDTFDKEFEIKNEDGVRAKVTLSTFSFIFCIEDF | not soluble
19 | MTDANYPIYGDIDGPIIMIGFGSIGRGTLPLIERHFNFDRTRLVVIDPREDIAAFLAERNIRHVQTHLTKENYKDVLKPLLKGVQGKGFCVNLSVDAASVDLMRICRKHGMLYIDTVVEPWPGFYFDADADNRARTNYSLRETMLKERARKPGGTTAVSTCGANPGMVSWFVKQALVNLAKDTGLDIEEPQSHDREGWAKLMQQLGVKGVHVAERDTQRAKEPKPFGAFWNTWSVEGFIAEGFQPAELGWGTHENWMPKNAKKQKKGSKAAIYLDQPGANTRVRTWCPGLGAQYGFLVTHNEAISISDYFTVRNDDGDVTYRPTCHYAYHPCNDAILSLHELFGNGGNPQPIQHVLGEDELVDGADELGVLLYGHDRNAYWYGSRLSLEEARSLAPSQNATGLQVSSAVLAGMAWAIENPEAGIVEADEMDYRRCLEVQRPYLGPVEGHYTDWTPLDGRPGLFPDNIDMSDPWQFRNILVRAAALEHHHHHH | soluble
20 | MTDERYGYIHASMLPTQCLCTKLRRAARSVSRFYDEALADTGLKVAQFSLLRHLRRLDRPSISELAEAMGLDRSTLGRNLRVLEGDGLLRLTGGEDQRNRLVELTPAGLDALERGTPAWEDAQRRLAGRLGEERSGALAALLAELERLD | not soluble
